Measured values reported in the supplement of paper PMC10567573.

B1: PLD5 (parent)
chain: KRTYWPDLDAKIREALVLRSVRVR
B2: SNAP91 (parent)
chain: FATASAAVPVSTSKPSSDLLDLQP

Variants of: B1
Test: protein stability index of a GFP-peptide fusion (GPS, HEK-293T) (PSI 1-6); higher = more stable
Details: c terminus: a fixed tail appended
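Also: lentivirally expressed fusions sorted by FACS into six bins by GFP to DsRed ratio, PSI derived from sequencing read proportions per bin multiplied by bin number.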

Variant	protein stability index
R24D	2.27
R24F	2.13
R24M	1.68
R24Y	2.74
R24E	1.94
R24P	2.01
R24L	1.77
R24S	1.97
R24A	1.53
R24K	1.08
R24Q	3.34
R24I	2.32
R24T	1.52
R24C	2.52
R24H	1.74
R24N	1.62
V17T	1.57
V17H	3.18
V17N	5.34
V17G	2.11
V17R	1.32
V17K	1.79
V17E	1.6
V17I	1.11
V17M	2.18
V17W	1.3

Variant	protein stability index
V17S	1.95
V17Q	1.57
V17L	1.91
L18E	2.93
L18K	2.64
L18F	1.78
L18I	1.64
L18W	2.04
L18V	1.6
L18R	2.12
L18Y	2.09
L18G	1.91
L18M	1.51
L18N	2.45
L18T	1.71
L18H	2.16
L18S	1.88
V23C	1.61
V23M	3.02
V23N	2.54
V23T	1.88
V23P	3.22
V23Y	1.74
V23Q	2.12
V23D	2.35
V23I	1.96

Variant	protein stability index
V23K	1.99
V23F	1.9
V23W	1.78
V23H	2.1
V23E	1.64
V23L	1.03
V23A	1.93
S20R	2
S20T	1.96
S20N	1.77
S20Q	2.04
S20K	1.48
R19K	1.45
R19Y	2.67
R19H	1.48
R19N	2.8
R19C	2.36
R19T	2.53
R19Q	2.53
R19E	1.69
R19S	1.8
R22S	2.14
R22D	2.31
R22L	1.4
R22Y	1.61
R22E	2.02

Variant	protein stability index
R22V	2.14
R22A	1.45
R22K	1.99
R22P	1.65
R22T	1.59
R22G	1.65
R22C	2.32
R22H	1.51
V21K	2.75
V21I	1.66
V21Y	2.68
V21G	2.4
V21A	1.84
V21H	2.11
V21N	2.48
V21M	2.51
V21S	2.09
V21E	2.24
V21R	2.4
V21Q	2
V21T	1.91
V21F	3.54
L16S	2.51
L16V	2.53
L16W	3.86
L16Y	2.06

Variants of: B2
Test: as above
Details: c terminus: a fixed tail appended

Variant	protein stability index
A4Q	3.9
A4H	4.06
A4K	3.8
A4T	3.72
A4Y	3.73
A4S	3.8
A4V	3.9
A4F	2.06
A4E	4.57
A4R	3.16
A4W	1.64
A4C	2.66
A4G	3.63
A4I	3.04
A4N	3.81
A4M	3.31
A4P	4.19
A4L	2.89
A4D	4.72
T12K	3.61
T12A	4.36
T12P	2.1
T12Q	3.97
T12E	4.44
T12D	4.04
T12N	3.7

Variant	protein stability index
T12Y	3.28
T12M	2.78
T12H	4.3
T12S	4.49
T12W	2.61
T12I	3.51
T12R	3.13
T12L	3.74
T12G	3.91
T12F	3.07
T12V	3.73
T12C	2.58
S11V	3.62
S11F	1.7
S11I	3.15
S11K	3.84
S11R	3.77
S11M	3.5
S11L	3.03
S11H	3.01
S11P	2.88
S11C	3.15
S11E	4.2
S11D	4.42
S11Q	3.24
S11T	3.71

Variant	protein stability index
S11G	3.73
S11A	3.44
S11Y	2.17
S11N	3.76
S13D	3.62
S13E	3.67
S13K	3.72
S13F	3.22
S13L	3.09
S13G	3.95
S13I	3.42
S13C	2.57
S13H	3.66
S13A	3.82
V8C	3.38
V8T	4.12
V8S	3.87
V8W	1.88
V8N	4.32
V8F	3.11
V8E	3.99
V8M	3.02
V8K	4.13
V8Y	3.09
V8D	4.64
V8Q	4.2

Variant	protein stability index
V8H	4.27
V8R	3.79
V8L	3.37
V8P	4.07
V8G	4.52
V8A	3.58
V8I	3.93
A6Y	1.96
A6V	2.98
A6G	3.5
A6L	2.47
A6S	3.78
A6N	4.69
A6D	4.22
A6F	2.31
A6C	2.46
A6Q	3.67
A6R	3.31
A6M	2.92
A6W	4.07
A6P	3.54
A6E	4.31
A6I	2.41
A6K	4.23
A6T	3.5
A6H	3.19

Variant	protein stability index
A2S	4.01
A2M	3.79
A2Y	3.77
A2T	3.18
A2L	3.75
A2G	4.09
A2I	2.2
A2E	4.5
A2D	5
A2F	3.21
A2N	3.85
A2C	3.09
A2P	4.27
A2K	3.99
A2Q	4.11
A2W	2.96
A2H	2.71
A2V	1.65
A2R	3.46
V10Y	4.29
V10R	2.85
V10G	3.37
V10C	3.18
V10T	4.17
V10Q	4.61
V10H	4.01

Variant	protein stability index
V10F	2.69
V10M	3.55
V10E	4.23
V10A	3.87
V10L	3.63
V10S	3.97
V10K	4.04
V10I	3.39
V10D	4.18
V10N	3.94
V10P	4.36
T3S	3.39
T3C	3.45
T3L	3.35
T3K	3.22
T3N	3.24
T3E	4.26
T3P	2.41
T3G	2.65
T3D	3.8
T3W	1.64
T3V	4.38
T3A	2.8
T3F	2.15
T3M	3.16
T3I	2.81

Variant	protein stability index
T3Q	4.15
T3Y	1.98
T3H	3.71
P9F	1.93
P9E	3.99
P9T	3.73
P9A	2.96
P9V	2.24
P9Q	3.31
P9D	3.78
P9H	3.46
P9M	2.29
P9C	2.27
P9N	3.75
P9I	1.87
P9K	3.23
P9L	1.92
P9S	3.26
P9G	2.3
P9R	3.05
S5N	3.66
S5G	3.54
S5V	3.21
S5H	3.33
S5I	2.8
S5P	3.54

Variant	protein stability index
S5A	3.46
S5W	3.73
S5R	3.45
S5M	2.83
S5T	3.73
S5Q	3.38
S5E	4.02
S5F	1.45
S5Y	1.67
S5D	4.17
S5C	3.02
S5K	4.11
S5L	2.28
A7C	3.07
A7K	3.54
A7Q	3.79
A7S	3.55
A7E	4.4
A7I	3.14
A7F	3.89
A7N	3.9
A7L	2.93
A7R	3.63
A7T	3.24
A7G	3.72
A7H	3.24

Variant	protein stability index
A7M	4.01
A7D	4.5
A7P	3.66
A7V	3.05
F1D	5.71
F1I	4.5
F1R	4.99
F1P	4.84
F1N	4.53
F1L	4.62
F1G	4.89
F1Q	5.06
F1E	5.69
F1T	4.91
F1Y	3.8
F1H	5.52
F1A	4.84
F1V	4.54
F1M	4.67
F1K	4.92
F1C	4.64
F1S	4.99
